Test results from IntAct's records for PubMed 15156152.

B1: Integrin beta-5 (Homo sapiens), P18084 (parent)
chain: MPRAPAPLYACLLGLCALLPRLAGLNICTSGSATSCEECLLIHPKCAWCSKEDFGSPRSITSRCDLRANLVKNGCGGEIESPASSFHVLRSLPLSSKGSGSAGWDVIQMTPQEIAVNLRPGDKTTFQLQVRQVEDYPVDLYYLMDLSLSMKDDLDNIRSLGTKLAEEMRKLTSNFRLGFGSFVDKDISPFSYTAPRYQTNPCIGYKLFPNCVPSFGFRHLLPLTDRVDSFNEEVRKQRVSRNRDAPEGGFDAVLQAAVCKEKIGWRKDALHLLVFTTDDVPHIALDGKLGGLVQPHDGQCHLNEANEYTASNQMDYPSLALLGEKLAENNINLIFAVTKNHYMLYKNFTALIPGTTVEILDGDSKNIIQLIINAYNSIRSKVELSVWDQPEDLNLFFTATCQDGVSYPGQRKCEGLKIGDTASFEVSLEARSCPSRHTEHVFALRPVGFRDSLEVGVTYNCTCGCSVGLEPNSARCNGSGTYVCGLCECSPGYLGTRCECQDGENQSVYQNLCREAEGKPLCSGRGDCSCNQCSCFESEFGKIYGPFCECDNFSCARNKGVLCSGHGECHCGECKCHAGYIGDNCNCSTDISTCRGRDGQICSERGHCLCGQCQCTEPGAFGEMCEKCPTCPDACSTKRDCVECLLLHSGKPDNQTCHSLCRDEVITWVDTIVKDDQEAVLCFYKTAKDCVMMFTYVELPSGKSNLTVLREPECGNTPNAMTILLAVVGSILLVGLALLAIWKLLVTIHDRREFAKFQSERSRARYEMASNPLYRKPISTHTVDFTFNKFNKSYNGTVD

Variants of: B1
Details: with myo10_mouse Myo10, F8VQB6
myo10_mouse Myo10, F8VQB6, sequence (F8VQB6 whole entry): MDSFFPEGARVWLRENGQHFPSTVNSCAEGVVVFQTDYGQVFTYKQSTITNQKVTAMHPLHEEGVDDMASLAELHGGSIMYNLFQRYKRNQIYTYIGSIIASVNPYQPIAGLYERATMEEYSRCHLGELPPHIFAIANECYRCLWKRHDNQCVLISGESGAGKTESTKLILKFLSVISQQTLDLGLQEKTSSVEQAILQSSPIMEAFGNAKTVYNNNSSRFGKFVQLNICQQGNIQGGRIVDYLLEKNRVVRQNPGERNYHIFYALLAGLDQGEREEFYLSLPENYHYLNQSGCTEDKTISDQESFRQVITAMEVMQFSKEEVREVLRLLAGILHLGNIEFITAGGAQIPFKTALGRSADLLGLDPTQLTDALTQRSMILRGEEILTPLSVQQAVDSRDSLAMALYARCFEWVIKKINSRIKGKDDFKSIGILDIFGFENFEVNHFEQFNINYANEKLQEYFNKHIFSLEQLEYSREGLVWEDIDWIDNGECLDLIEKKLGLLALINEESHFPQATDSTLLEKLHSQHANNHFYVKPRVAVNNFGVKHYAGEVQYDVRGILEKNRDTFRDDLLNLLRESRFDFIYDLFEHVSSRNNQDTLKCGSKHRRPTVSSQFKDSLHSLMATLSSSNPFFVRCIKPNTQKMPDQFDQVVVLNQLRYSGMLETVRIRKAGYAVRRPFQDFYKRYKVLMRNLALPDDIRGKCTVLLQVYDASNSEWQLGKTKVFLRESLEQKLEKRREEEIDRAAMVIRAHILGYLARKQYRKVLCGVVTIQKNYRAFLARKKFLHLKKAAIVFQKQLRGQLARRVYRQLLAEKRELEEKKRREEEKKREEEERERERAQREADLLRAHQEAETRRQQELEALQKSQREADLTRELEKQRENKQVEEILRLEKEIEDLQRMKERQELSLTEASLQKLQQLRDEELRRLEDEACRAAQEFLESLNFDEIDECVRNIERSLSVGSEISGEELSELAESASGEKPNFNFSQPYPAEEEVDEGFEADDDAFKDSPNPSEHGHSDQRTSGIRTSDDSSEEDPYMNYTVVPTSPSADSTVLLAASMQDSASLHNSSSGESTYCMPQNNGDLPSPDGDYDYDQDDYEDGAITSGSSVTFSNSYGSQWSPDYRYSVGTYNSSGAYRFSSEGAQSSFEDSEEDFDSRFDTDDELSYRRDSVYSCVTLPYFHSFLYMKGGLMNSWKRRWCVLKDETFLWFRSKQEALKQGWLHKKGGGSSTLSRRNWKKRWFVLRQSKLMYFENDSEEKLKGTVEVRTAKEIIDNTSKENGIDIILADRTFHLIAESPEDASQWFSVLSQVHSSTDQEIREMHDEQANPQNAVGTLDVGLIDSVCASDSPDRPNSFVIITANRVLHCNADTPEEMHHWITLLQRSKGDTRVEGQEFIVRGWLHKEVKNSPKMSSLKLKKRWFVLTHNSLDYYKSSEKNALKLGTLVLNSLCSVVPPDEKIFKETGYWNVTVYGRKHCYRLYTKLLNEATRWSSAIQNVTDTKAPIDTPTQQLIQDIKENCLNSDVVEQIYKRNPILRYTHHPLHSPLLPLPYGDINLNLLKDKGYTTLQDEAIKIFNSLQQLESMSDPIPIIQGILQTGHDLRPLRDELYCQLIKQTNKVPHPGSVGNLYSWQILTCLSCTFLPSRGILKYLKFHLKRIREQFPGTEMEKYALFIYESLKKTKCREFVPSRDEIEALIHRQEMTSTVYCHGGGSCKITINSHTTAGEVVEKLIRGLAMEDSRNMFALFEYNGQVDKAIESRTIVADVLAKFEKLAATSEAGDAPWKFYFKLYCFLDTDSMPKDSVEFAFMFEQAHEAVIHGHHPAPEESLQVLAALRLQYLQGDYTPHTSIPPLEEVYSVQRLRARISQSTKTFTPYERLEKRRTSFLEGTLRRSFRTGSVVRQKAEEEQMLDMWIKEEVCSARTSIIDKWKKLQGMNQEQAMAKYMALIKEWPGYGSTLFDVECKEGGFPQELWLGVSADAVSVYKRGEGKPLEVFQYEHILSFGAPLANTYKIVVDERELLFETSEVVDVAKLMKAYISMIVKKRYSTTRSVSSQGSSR

Row | effect of a mutation on the interaction | Variant
1 | decreasing interaction | L773A
2 | disrupting interaction | Y774A
3 | disrupting interaction | P772A

Variants of: B1
Details: with myo10_bovin MYO10, P79114
myo10_bovin MYO10, P79114, sequence (P79114 whole entry): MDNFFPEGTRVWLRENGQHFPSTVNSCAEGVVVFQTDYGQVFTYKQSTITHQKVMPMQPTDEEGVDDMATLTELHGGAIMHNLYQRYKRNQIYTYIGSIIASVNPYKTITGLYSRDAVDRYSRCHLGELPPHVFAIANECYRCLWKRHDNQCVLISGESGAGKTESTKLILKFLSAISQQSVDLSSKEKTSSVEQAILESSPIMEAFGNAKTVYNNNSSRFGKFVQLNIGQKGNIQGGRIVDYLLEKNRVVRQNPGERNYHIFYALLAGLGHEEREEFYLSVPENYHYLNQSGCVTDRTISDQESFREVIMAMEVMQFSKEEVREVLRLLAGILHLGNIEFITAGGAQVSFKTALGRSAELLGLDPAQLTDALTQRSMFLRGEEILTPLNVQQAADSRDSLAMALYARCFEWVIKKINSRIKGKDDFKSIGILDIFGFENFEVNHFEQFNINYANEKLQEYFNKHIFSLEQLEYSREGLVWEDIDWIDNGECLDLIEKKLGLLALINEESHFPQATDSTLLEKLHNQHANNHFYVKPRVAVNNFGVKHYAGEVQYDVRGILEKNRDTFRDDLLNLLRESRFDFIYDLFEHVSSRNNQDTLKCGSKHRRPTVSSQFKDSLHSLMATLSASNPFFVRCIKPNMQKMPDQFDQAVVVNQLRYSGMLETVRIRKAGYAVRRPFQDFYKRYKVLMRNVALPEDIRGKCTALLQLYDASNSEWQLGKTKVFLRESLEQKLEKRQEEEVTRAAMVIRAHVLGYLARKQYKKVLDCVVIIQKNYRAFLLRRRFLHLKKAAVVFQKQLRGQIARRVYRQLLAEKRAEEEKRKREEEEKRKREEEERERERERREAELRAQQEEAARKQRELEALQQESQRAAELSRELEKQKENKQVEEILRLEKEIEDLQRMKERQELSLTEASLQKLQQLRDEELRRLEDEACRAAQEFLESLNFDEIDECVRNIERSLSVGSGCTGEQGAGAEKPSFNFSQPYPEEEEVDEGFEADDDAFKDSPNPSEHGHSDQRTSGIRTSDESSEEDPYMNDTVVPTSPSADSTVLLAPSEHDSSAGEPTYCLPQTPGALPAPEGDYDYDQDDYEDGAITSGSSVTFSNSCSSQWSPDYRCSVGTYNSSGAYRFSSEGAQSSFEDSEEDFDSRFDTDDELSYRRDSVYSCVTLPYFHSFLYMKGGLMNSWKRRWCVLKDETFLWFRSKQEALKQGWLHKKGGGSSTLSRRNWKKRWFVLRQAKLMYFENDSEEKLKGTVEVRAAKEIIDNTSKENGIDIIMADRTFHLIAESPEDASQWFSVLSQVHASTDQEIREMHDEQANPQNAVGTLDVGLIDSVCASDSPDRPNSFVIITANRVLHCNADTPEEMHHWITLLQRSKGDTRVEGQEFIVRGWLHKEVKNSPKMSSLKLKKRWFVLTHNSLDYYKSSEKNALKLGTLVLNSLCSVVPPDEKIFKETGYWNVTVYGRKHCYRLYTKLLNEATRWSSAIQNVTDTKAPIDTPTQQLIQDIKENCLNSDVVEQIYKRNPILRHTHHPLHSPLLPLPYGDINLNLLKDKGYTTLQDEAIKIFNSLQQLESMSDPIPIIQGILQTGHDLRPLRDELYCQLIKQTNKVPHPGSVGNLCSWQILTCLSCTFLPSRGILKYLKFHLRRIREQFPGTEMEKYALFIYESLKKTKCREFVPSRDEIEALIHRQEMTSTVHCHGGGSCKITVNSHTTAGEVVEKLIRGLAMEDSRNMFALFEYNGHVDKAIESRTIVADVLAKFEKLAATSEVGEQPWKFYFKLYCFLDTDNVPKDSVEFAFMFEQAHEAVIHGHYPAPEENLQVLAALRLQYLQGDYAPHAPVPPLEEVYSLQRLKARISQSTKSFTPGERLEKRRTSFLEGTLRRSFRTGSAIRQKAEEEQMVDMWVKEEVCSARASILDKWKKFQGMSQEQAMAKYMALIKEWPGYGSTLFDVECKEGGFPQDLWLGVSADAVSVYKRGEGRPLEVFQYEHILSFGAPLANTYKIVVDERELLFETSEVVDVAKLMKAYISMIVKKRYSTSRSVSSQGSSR

Row | effect of a mutation on the interaction | Variant
4 | disrupting interaction | P772A
